Assay results as given in US20250320296A1 (published 2025).

What was measured:
[1] = molecular target: T1, murine PD-L1 on CHO cells (murine, UniProt Q9EP73 19-290); experiment: FIG. 4 legend: Octet avidity curves and FACS on CHO-PD-L1 cells
T1 construct: whole, on cells; also called CHO-PD-L1 cells
Protocol: (§1) Antibody Activity. Varying concentrations of PD-L1 antibodies, with human IgG1 backbones, were added to CHO cells expressing either human or murine PD-L1 (CHO-PD-L1 cells). Binding was detected by addition of anti-human IgG1 secondary antibody conjugated to phycoerythrin. FACS analysis was performed, detecting phycoerythrin to determine fluorescence activity at a variety of antibody concentrations. EC50 was calculated using GraphPad Prism® software.

[2] = molecular target: T2, human PD-L1 on CHO cells (human, UniProt Q9NZQ7 19-290); experiment: FIG. 4: Octet avidity curves and FACS on CHO-PD-L1 cells
T2 construct: also called CHO-PD-L1 cells
Protocol: as §1

T2 sequence (Q9NZQ7 19-290 limits assumed): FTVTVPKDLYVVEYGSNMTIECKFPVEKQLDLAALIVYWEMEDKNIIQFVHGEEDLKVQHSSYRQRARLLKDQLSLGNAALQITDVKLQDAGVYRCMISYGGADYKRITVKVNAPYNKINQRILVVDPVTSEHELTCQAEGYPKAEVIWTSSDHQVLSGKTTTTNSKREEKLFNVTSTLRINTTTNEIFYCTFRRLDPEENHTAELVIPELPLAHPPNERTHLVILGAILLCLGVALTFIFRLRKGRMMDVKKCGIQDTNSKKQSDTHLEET
T1 sequence (Q9EP73 19-290): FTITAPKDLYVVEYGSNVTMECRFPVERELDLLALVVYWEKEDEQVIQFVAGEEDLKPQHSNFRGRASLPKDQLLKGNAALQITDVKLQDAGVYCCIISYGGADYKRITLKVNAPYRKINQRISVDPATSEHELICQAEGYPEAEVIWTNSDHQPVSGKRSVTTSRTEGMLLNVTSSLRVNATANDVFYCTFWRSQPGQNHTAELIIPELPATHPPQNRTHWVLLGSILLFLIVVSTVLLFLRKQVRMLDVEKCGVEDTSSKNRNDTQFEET

B1: ADI-20799 (antibody, human IgG1, V domains shown)
VH: QVQLVQSGAEVKKPGASVKVSCKASGYTFTGVYMHWVRQAPGQGLEWMGGIFPIGGTANYAQKFQGRVTITADESTSTAYMELSSLRSEDTAVYYCARDRTSGALYWGQGTLVTVSS
VL: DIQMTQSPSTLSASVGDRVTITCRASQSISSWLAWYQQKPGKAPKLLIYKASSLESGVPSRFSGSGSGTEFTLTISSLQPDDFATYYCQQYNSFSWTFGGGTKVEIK
B1: binds [1]; binds [2].
